Consider one protein from article PMC11238716 (ACS Medicinal Chemistry Letters, 2024).

This data set deals with the molecule itself. The experiment in a line: SEC. (In general: Size exclusion chromatography separates by hydrodynamic size, large species first.)

B1: 6 × HisMBP-SREBP-1a (1–198) (domain or fragment, human, UniProt P36956-1 1-198, looked up)
chain: MDEPPFSEAALEQALGEPCDLDAALLTDIEDMLQLINNQDSDFPGLFDPPYAGSGAGGTDPASPDTSSPGSLSPPPATLSSSLEAFLSGPQAAPSPLSPPQPAPTPLKMYPSMPAFSPGPGIKEESVPLSILQTPTPQPLPGALLPQSFPAPAPPQFSSTPVLGYPSPPGGFSTGSPPGNTQQPLPGLPLASPPGVPP
Turning to B1, the binding result is “binds”.
